Experimental findings from US20250034222A1, “IL-38 VARIANTS” (Monash University, priority 2021, published 2025) are described below.

Series [1] can be described thus: SEC analysis of monomer:dimer proportion of IL-38 variants upon purification. Type of series: physicochemical. The conditions noted are these: for capacity to form a homodimer / monomer: SEC upon purification, FIG. 11. On the procedure:
Recombinant IL-38 variants were expressed in BL21-CodonPlus(DE3)-RIL cells (Stratagene) by 0.5 mM IPTG induction (OD600 0.8) overnight at 18° C. Cells expressing IL-38 variants were lysed by sonication in 50 mM Tris-HCl (pH 8.0), 500 mM NaCl, 3 mM β-mercaptoethanol, and 30 mM imidazole. Cells were clarified by centrifugation, filtered through a 0.8 μm membrane, and bound to Ni-NTA resin (Qiagen) for 1 hour at 4° C. on a rotating platform. The resin was washed with 300 ml of 50 mM Tris-HCl (pH 8.0), 500 mM NaCl, 3 mM β-mercaptoethanol, and 30 mM imidazole. The protein was eluted from the Ni-NTA resin (Qiagen) in a buffer containing 50 mM Tris-HCl (pH 8.0), 500 mM NaCl, 3 mM β-mercaptoethanol, and 400 mM imidazole. Protein was further purified on a Superdex 75 Increase 10/300 GL column (Cytiva Life Sciences) in 10 mM HEPES (pH 7.2), 150 mM NaCl, and 2 mM DTT.
The number and elution volume of the elution peaks are indicative of whether the size of the recombinant protein corresponds to monomeric or dimeric IL-38 conformations or both conformations. The proportion of monomer: dimer for each mutant (FIGS. 9 and 11) were calculated by comparing the area under the monomer and dimer peaks from three individual purifications.

Series [2] can be described thus: Analytical SEC of IL-38 variants upon extended incubation. Type of series: physicochemical. The conditions noted are these: 0.165 mg/ml, 37° C., 16 hours, Sorensen's phosphate buffer pH 7.0, 5% glycerol. On the procedure: To examine the monomer-dimer equilibrium upon extended incubation, indicated IL-38 variants (residues 3-152, C-terminal His6 tag) were incubated at 0.165 mg/ml and 37° C. for 16 hours in Sorensen's phosphate buffer (0.13 M, pH 7.0) with 5% (v/v) glycerol. The monomer: dimer proportion was examined by analytical SEC on a Superdex 75 Increase 10/300 GL column (Cytiva Life Sciences).

Another series has as its system IRF3/7. The series is described as follows: Poly (I:C)-induced IRF3/7 Quanti-Luc in A549-Dual reporter cells. Type of series: cell-based, Human. The conditions noted are these: 1 ng/ml Poly (I:C) LMW, 100 nM/l to 100 fM/l variant, 20 h, dexamethasone 5 nM benchmark. On the procedure:
FIG. 17: IL-38-Fc reduces Poly (I:C)-induced IRF3/7 Quanti-Luc in Human NF-kB-SEAP & IRFLuc Reporter A549-Dual cells from Invivogen (lung epithelial cells). A549-Dual cells were pretreated for 1 h with lipofectamine and (1 ng/ml) Poly (I:C) low molecular weight (LMW) and then stimulated dose dependently (A) 100 nM/l, (B) 1 nM/l, (C) 10 pM/l, (D) 100 fM/l with different IL-38 variants or dexamethasone (5 nM) as benchmark for 20 h. […]
6 μl of A549 Dual cell supernatants or plain stimulation media (background control) and 15 μl of QUANTI-Luc™ solution (InvivoGen) were added to a 384-well plate (Opti-plate-384, PerkinElmer, #6007290) and immediately measured as per manufacturer's instructions. After background subtraction, the %-change in luciferase activity of IL-38 variants (1 nm/l)+Poly (I:C) treated conditions over poly (I:C)+vehicle-treated cells were calculated ([…] of cells treated with poly (I:C)+vehicle=100%).

Setting [3] is: SEC, area under monomer and dimer peaks.

Numbering of substitutions follows the chain as printed. Names and notes keep the numbering of the source. “Also recorded” adds a separate entry of the source.

B1: ΔT53: Locked homodimer IL-38 variant, T53 deleted (protein, UniProt Q8WWZ1 1-152, looked up, variant T53*)
Interleukin-1 family member 10: MCSLPMARYYIIKYADQKALYTRDGQLLVGDPVADNCCAEKICILPNRGLARKVPIFLGIQGGSRCLACVETEEGPSLQLEDVNIEELYKGGEEATRFTFFQSSSGSAFRLEAAAWPGWFLCGPAEPQQPVQLTKESEPSARTKFYFEQSW
Take B1: the “capacity to form a homodimer / monomer” value in series [1] was “stable locked dimer”. Moreover, the “monomer-dimer equilibrium upon extended incubation” value in series [2] is listed as “stable as a dimer”. Moreover, the “reduction in poly (I:C)-induced IRF3/7 (Quanti-Luc)” value in the series on IRF3/7 is “only marginal reduction”.

B2: IL-38 (A51D): Variant of IL-38 that forms monomer; SNP rs6743376, mutation at residue 51 (A51D), residues 3-152 (protein)
chain: SLPMARYYIIKYADQKALYTRDGQLLVGDPVADNCCAEKICILPNRGLDRTKVPIFLGIQGGSRCLACVETEEGPSLQLEDVNIEELYKGGEEATRFTFFQSSSGSAFRLEAAAWPGWFLCGPAEPQQPVQLTKESEPSARTKFYFEQSW
Turning to B2, the “capacity to form a homodimer / monomer” value in series [1] is “reduced capacity to form a homodimer”. In addition, the “monomer-dimer equilibrium upon extended incubation” value in series [2] was “more stable monomer; also recorded: stable monomer”.

B3: T53N: Variant of IL-38 T53N with increased capacity to form monomer, residues 3-152 (protein)
chain: B2 chain with D49A, T51N
As for B3, in series [1], the “capacity to form a homodimer / monomer” value is given as “reduced capacity to form a homodimer”.

B4: WT IL-38: Wild-type IL-38, residues 3-152, alanine at position 51 (called D51A) (protein)
chain: B2 chain with D49A
As to B4, in series [1] (setting [3]), the “dimer formed upon purification” value is on record as about 20% and the monomer upon purification is reported as about 80%. Besides, the “monomer-dimer equilibrium upon extended incubation” value in series [2] was “slow equilibrium between the two states”. Besides, the “reduction in poly (I:C)-induced IRF3/7 (Quanti-Luc)” value with IRF3/7 is reported as “slightly less potent than A51D (non-fused) IL-38”.

B5: V55T: Variant of IL-38 V55T with increased capacity to form monomer, residues 3-152 (protein)
chain: B2 chain with D49A, V53T
As to B5, the “capacity to form a homodimer / monomer” value in series [1] is given as “reduced capacity to form a homodimer”.

B6: V55Q: Variant of IL-38 V55Q with increased capacity to form monomer, residues 3-152 (protein)
chain: B2 chain with D49A, V53Q
On to B6, for which the “capacity to form a homodimer / monomer” value in series [1] is “reduced capacity to form a homodimer”.
